Consider four molecules from patent US20240010720A1 (IOMX THERAPEUTICS, published 2024).

Like-named read-outs stand apart in the source and are kept apart here.

Experiment [1] addresses T1, IgV domain of human IGSF11 fused to murine IgG2a Fc-region (human; mouse, UniProt Q5DX21 23-143).
T1 construct: also called IgV-like domain mFc fusion; not shown: murine IgG2a Fc-region
T1 sequence: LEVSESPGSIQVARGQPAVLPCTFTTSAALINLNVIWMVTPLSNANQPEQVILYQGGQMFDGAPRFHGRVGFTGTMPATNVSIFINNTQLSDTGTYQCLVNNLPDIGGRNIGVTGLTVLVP
The experiment in a line: ELISA, IgG.

In experiment [2] the target is T2, IGSF11 ECD fused to murine-Fc (human; mouse, UniProt Q5DX21 23-241).
T2 construct: also called Fc-fusion IGSF11 ECD; full-length ECD of IGSF11; not shown: murine Fc
T2 sequence: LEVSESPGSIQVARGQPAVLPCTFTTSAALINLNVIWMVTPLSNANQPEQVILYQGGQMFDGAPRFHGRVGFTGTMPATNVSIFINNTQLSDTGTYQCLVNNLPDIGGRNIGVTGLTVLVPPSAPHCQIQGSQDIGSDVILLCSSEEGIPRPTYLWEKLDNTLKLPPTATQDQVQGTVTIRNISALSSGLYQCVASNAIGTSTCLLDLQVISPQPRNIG
Briefly: ELISA, IgG.

Experiment [3] concerns the target T3, human IGSF11 (VSIG3) on cells (human, UniProt Q5DX21 23-431).
T3 sequence: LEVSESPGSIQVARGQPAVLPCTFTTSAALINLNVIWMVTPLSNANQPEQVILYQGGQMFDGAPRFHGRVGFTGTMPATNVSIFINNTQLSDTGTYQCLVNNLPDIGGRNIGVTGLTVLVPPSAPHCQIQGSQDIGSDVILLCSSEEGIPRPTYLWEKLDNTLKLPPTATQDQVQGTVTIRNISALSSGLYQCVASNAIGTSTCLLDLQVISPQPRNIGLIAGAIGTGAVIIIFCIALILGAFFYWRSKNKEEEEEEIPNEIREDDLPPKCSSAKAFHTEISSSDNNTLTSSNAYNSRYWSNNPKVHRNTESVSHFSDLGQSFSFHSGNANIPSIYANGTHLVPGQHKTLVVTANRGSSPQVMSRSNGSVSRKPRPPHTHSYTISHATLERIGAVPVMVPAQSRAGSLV
Briefly: FACS, HEK cells expressing IGSF11.

In experiment [4] the target is T4, recombinant human IGSF11 (VSIG3) extracellular domain (ECD) (human, UniProt Q5DX21 23-241, biotinylated where captured on streptavidin).
T4 construct: also called biotinylated recombinant ECD-IGSF11; IGSF11 (ECD domain)
T4 sequence: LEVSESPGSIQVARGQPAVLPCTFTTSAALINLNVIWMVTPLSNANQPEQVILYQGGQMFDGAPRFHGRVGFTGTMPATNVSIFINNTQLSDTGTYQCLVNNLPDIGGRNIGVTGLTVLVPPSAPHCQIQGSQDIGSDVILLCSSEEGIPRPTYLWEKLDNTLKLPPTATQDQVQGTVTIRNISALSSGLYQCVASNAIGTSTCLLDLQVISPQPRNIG
Briefly: SPR, IgG1.

Experiment [5] addresses T3, human IGSF11 (VSIG3) on cells. Briefly: FACS, IgG1-format antibodies; DMS 273 cells (D) treated with IGSF11 siRNA (KD).
For experiment [6] the target is unchanged. The experiment in a line: FACS, IgG1-format antibodies; CL-11 cells (C), a line that does not express IGSF11 (specificity control), scrambled control siRNA (SC).
Experiment [7] has the same target. The experiment in a line: FACS, IgG1-format antibodies; M579-A2-luc cells (M) treated with scrambled control siRNA (SC).
For experiment [8] the target is unchanged. The experiment in a line: FACS, IgG1-format antibodies; CL-11 cells (C), a line that does not express IGSF11 (specificity control), IGSF11 siRNA (KD).
Experiment [9] deals with T4, recombinant human IGSF11 (VSIG3) …. Briefly: BLI, IgG1.
Experiment [10] concerns the target T3, human IGSF11 (VSIG3) on cells. The experiment in a line: FACS, IgG1-format antibodies; DMS 273 cells (D) treated with scrambled control siRNA (SC).
The target in experiment [11] is T5, His-tagged extracellular domain (ECD) of human IGSF11 (VSIG3) (human, UniProt Q5DX21 23-241).
T5 construct: partly bought (SinoBiological 13094-H08H); also called IGSF11-HIS; HIS-IGSF11; not shown: HIS6 tag
T5 sequence: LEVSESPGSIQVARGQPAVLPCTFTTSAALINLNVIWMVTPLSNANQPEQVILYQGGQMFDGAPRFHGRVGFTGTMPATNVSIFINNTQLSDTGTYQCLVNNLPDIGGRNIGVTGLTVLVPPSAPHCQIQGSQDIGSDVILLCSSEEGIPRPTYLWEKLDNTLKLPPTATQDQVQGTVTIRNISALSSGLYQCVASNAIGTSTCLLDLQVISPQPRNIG
Briefly: ELISA EC50 grade, IgG1.

Experiment [12] has as its target T6, IgC2 domain of human IGSF11 fused to murine IgG2a Fc-region (human; mouse, UniProt Q5DX21 137-241).
T6 construct: also called IgC2-like domain mFc fusion; not shown: murine IgG2a Fc-region
T6 sequence: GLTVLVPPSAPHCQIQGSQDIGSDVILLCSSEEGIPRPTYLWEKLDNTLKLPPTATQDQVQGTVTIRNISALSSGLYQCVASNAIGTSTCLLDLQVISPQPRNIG
The experiment in a line: ELISA, IgG.

The target of experiment [13] is T2, IGSF11 ECD fused to murine-Fc. Briefly: ELISA, IgG. This is another data set of the same source.
From the text: (§1) Expi293 cells (ThermoFisher) were transiently transfected with DNA sequences encoding the applicable IGSF11 domain-mFc fusions according to the manufacturer's instructions, and cultured under conditions suitable to the IGSF11 domain fusion. Cell supernatants were harvested 5 days post transfection and the expressed Fc-protein purified via Protein A affinity chromatography (GE Healthcare). IGSF11 domain Fc-fusion proteins were re-buffered into PBS pH7.4. […] The surface was blocked with 2% (w/v) skim milk powder in PBST. After three wash cycles with PBST, a dilution series of IgG-format ABPs was transferred to the immobilized the Fc-fusion IGSF11 ECD or the IGSF11 domains and incubated for 1 h. After removing all unbound antibodies by 3 wash cycles with PBST, bound IgG ABPs were detected with a goat anti-human IgG antibody conjugated with horseradish peroxidase. After three wash cycles with PBST the ELISA was developed with TMB substrate.
Experiment [14] concerns the target T3, human IGSF11 (VSIG3) on cells. Briefly: FACS, IgG1-format antibodies; M579-A2-luc cells (M) treated with IGSF11 siRNA (KD).
Experiment [15] has the same target. The experiment in a line: FACS, DMS 273 cells.
Experiment [16] has as its target T4, recombinant human IGSF11 (VSIG3) …. Briefly: BLI, apparent affinity, IgG captured, IGSF11 ECD 100 nM.
From the text: Briefly, various APBs were loaded on an optical biosensor via a commercially available Capture System (AHC sensors, ForteBio).
Experiment [17] has as its target T5, His-tagged extracellular domain (ECD) …. Briefly: blocking ELISA: IgG pre-incubated with His-tagged IGSF11 ECD, complexes added to immobilised VSIR-Fc; y axis % remaining IGSF11 binding, x axis IgG nM per legend.
Method: All binding steps were for 1 hour at room temperature, and all washing steps were three times washing with PBS/Tween (0.05%).
For experiment [18], the target named is T2, IGSF11 ECD fused to murine-Fc. Briefly: ELISA: IgG titrated on coated murine-Fc fusion of IGSF11 ECD; x axis IgG nM, y axis absorption per legend.
From the text: as §1
Experiment [19] deals with T5, His-tagged extracellular domain (ECD) …. Briefly: blocking ELISA: antibody pre-incubated with His-tagged IGSF11 ECD, complexes added to immobilised VSIR-Fc; y axis % remaining IGSF11 binding to VSIR, x axis nM IgG per legend.
Experiment [20] has the same target. Briefly: ELISA: IgG1-format antibody titrated on coated His-tagged IGSF11; x axis nM IgG, y axis absorbance per legend.
The target in experiment [21] is T2, IGSF11 ECD fused to murine-Fc. The experiment in a line: ELISA: IgG titrated on coated murine-Fc fusion of IGSF11 ECD; x axis IgG nM, y axis absorption per legend. This is another data set of the same source.
From the text: as §1

B1: C-025 (IgG1 format) (antibody, V domains shown)
VH: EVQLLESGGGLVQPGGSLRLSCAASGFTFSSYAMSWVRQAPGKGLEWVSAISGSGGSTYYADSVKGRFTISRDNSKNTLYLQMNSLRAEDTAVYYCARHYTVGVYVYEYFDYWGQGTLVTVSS
VL: SYELTQPPSVSVSPGQTASITCSGDKLGDKYASWYQQKPGQSPVLVIYQDSKRPSGIPERFSGSNSGNTATLTISGTQAEDEADYYCQSYATAGFVFGGGTKLTVL
notes: wildtype human IgG1 and kappa or lambda constant regions
On to B1, for which the concentration for a half-maximal effect (EC50) in [1] was less than 1 nM; in experiment [2], 1 to 20 nM.

B2: A-026 (IgG1 format) (antibody, V domains shown)
VH: QVQLQESGPGLVKPSQTLSLTCTVSGGSISSGGYYWSWIRQHPGKGLEWIGYIYYSGSTYYNPSLKSRVTISVDTSKNQFSLKLSSVTAADTAVYYCASWSLGTSNHGWFDPWGQGTLVTVSS
VL: QSVLTQPPSASGTPGQRVTISCSGSSSNIGSNTVNWYQQLPGTAPKLLISDNNNRPSGVPDRFSGSKSGTSASLAITGLQAEDEADYYCQSYDSNLSGWVFGGGTKLTVL
notes: human IgG1 format
Regarding B2, the concentration for a half-maximal effect (EC50) in experiment [3] is greater than 50 nM; in [11] it was 0.02 to 0.05 nM; in experiment [12], 1 to 20 nM; in [13], 1 to 20 nM. Further, the results for the Kd in experiment [4] and in [9] were greater than 500 nM and 20 to 30 nM, respectively. Moreover, the “percentage binding (FACS heat-map)” value stood at 3.81% in experiment [5]; 3.6% in [6]; 11.6% in experiment [7]; 3.47% in experiment [8]; 64.4% in experiment [10]; 2.01% in experiment [14].

B3: A-006 (IgG1 format) (antibody, V domains shown)
VH: EVQLVESGGGLIQPGGSLRLSCAASGFTVSSNYMSWVRQAPGKGLEWVSVIYSGGSTYYADSVKGRFTISRDNSKNTLYLQMNSLRAEDTAVYYCARGNPYYYGDLQVNFDYWGQGTLVTVSS
VL: QAVVTQEPSLTVSPGGTVTLTCASSTGAVTSGYYPNWFQQKPGQAPRPLIYSTSNKHSWTPARFSGSLLGGKAALTLSGVQPDDEAEYYCLLYYGGDWVFGGGTKLTVL
notes: human IgG1 format; also called A-006-like ABP
Take B3: the EC50 was 10 to 50 nM in experiment [3], greater than 50 nM in experiment [15], less than 0.02 nM in experiment [11] and less than 1 nM in experiment [13]. Moreover, the Kd in experiment [4] was 250 to 500 nM; in experiment [16] it was less than 15 nM; in experiment [9] it was 1 to 10 nM. For the same molecule, the “percentage binding (FACS heat-map)” value in experiment [5] turned out to be 5.72%; in experiment [6], 2.31%; in experiment [7], 75.3%; in experiment [8] it was 3.04%; in experiment [10], 81.1%; in experiment [14], 2.59%. For the same molecule, the “IC50 (read off the curve)” value in [17] and in [19] was roughly 4 nM in each case. Besides, the 50% effective concentration (EC50 (read off the curve)) in experiment [18] was roughly 0.5 nM; in [20] it was roughly 0.01 nM.

B4: A-024 (IgG1 format) (antibody, V domains shown)
VH: QMQLVQSGAEVKKPGSSVKVSCKASGGTFSSYAISWVRQAPGQGLEWMGWISAYNGNTNYAQKLQGRVTMTTDTSTSTAYMELRSLRSDDTAVYYCASLGSYGYTGAFDIWGQGTMATVSS
VL: QSALTQPASVSGSPGQSITISCTGTSSDVGGYNYVSWYQQHPGKAPKLMIYEVSNRPSGVSNRFSGSKSGNTASLTISGLQAEDEADYYCSSYTSSSTLVVFGGGTKLTVL
notes: also called A-024-like ABP
Turning to B4, in experiment [4], the Kd is greater than 500 nM. Further, the figures for the EC50 in experiment [15], in [11] and in experiment [13] were less than 10 nM, 0.02 to 0.05 nM and less than 1 nM, respectively. For the same molecule, in [21], the “EC50 (read off the curve)” value was roughly 0.4 nM.
